Laboratory results reported in patent US20120207760A1 (THERACLONE SCIENCES, published 2012).

B1: TCN-504 (3251_K17) (antibody, V domains shown)
VH: QVQLQESGPGLVKPSETLSLTCAVSGVSISNIDFYWGWIRQPPGKGLEWIGNIYYTGITFYNPSLSSRVAISIDTSKNQFSLTLTSVTAADTAMYYCARHYGDSEAINDAFDIWGQGTMLTVSS
VL: EIVMTQSPATLSVSPGERATLSCRASQSVGNSLAWYQQRPGQAPRLLIYGASTRATGIPPRFSGSGSGTEFTLTISSLQTEDFAVYYCQQYINWRPLSFGGGTKVEIK
B2: TCN-523 (5248_A17) (antibody, V domains shown)
VH: QVQLVQSGAEVKKPGSSVKVSCKASGGSFSNYAFSWVRQAPGQGLEWMGGTIPLLGTTNYAQKFQGRVTISADQFTSTAYMELGSLRSEDTAVYYCTRRKMTTAFDSWGQGTLVTVSS
VL: QPVLTQPPSASASLGASVTLTCTLSSAYSNYKVDWYQQRPGKGPRFVMRVGTGGIVGSKGDGIPDRFSVLGSGLNRYLTIKNIQEEDESDYHCGADHGSGSNFVSPYVFGGGTKLTVL

Experiments:
[1] = molecular target: T1, hemagglutinin (HA) of influenza A/Solomon Islands/3/06 H1N1 (Influenza A virus A/Solomon …); assay: ELISA, inactivated whole virions coated; transfection supernatant set 1
[2] = molecular target: T2, hemagglutinin (HA) of influenza A/Japan/305/57 H2N2 (Influenza A virus A/Japan/305/1957 …, UniProt P03451 16-562); assay: as above
[3] = molecular target: T1, hemagglutinin (HA) of influenza …; assay: ELISA, inactivated whole virions coated; transfection supernatant set 2
[4] = molecular target: T2, hemagglutinin (HA) of influenza …; assay: as above
[5] = molecular target: T1, hemagglutinin (HA) of influenza …; assay: ELISA, inactivated whole virions coated; transfection supernatant set 3
[6] = molecular target: T2, hemagglutinin (HA) of influenza …; assay: as above
[7] = molecular target: T1, hemagglutinin (HA) of influenza …; assay: ELISA, inactivated whole virions coated; transfection supernatant set 4
[8] = molecular target: T2, hemagglutinin (HA) of influenza …; assay: as above
[9] = molecular target: T1, hemagglutinin (HA) of influenza …; assay: ELISA, inactivated whole virions coated; transfection supernatant set 5
[10] = molecular target: T2, hemagglutinin (HA) of influenza …; assay: as above
[11] = molecular target: T1, hemagglutinin (HA) of influenza …; assay: cell-based or functional assay

Binder | OD450 [1] [OD450] | OD450 [2] [OD450] | OD450 [3] [OD450] | OD450 [4] [OD450] | OD450 [5] [OD450] | OD450 [6] [OD450] | OD450 [7] [OD450] | OD450 [8] [OD450] | OD450 [9] [OD450] | OD450 [10] [OD450] | % Neutralization [11] [%]
B1 | 3.65 | 3.65 | 3.65 | 3.62 | 3.63 | 3.64 | 3.52 | 3.51 | 3.6 | 3.59 | 
B2 | 3.59 | 1.69 | 3.67 | 1.39 | 3.59 | 3.47 | 3.43 | 1.73 | 3.62 | 2.56 | 69
